Source: patent US20210196823A1, “Methods of Treating Metabolic Disease” (Pfizer Inc., priority 2018, published 2021)
Positions count from the first letter of the chain named. Each block holds one molecule with its values, some of them ahead of it.

What was measured:
[1] = tested on: biotinylated monoFC-muErfe; assay: FRET assay: BMPs disrupting binding of cryptate-labelled anti-ERFE antibody 15.1 to biotinylated monoFC-muErfe; parameters: species or system murine; conditions: competing antigen 250 nM to 0.39 nM, Ab 15.1 15 nM, 3 hours room temperature
Chain of biotinylated monoFC-muErfe (Q6PGN1 25-340): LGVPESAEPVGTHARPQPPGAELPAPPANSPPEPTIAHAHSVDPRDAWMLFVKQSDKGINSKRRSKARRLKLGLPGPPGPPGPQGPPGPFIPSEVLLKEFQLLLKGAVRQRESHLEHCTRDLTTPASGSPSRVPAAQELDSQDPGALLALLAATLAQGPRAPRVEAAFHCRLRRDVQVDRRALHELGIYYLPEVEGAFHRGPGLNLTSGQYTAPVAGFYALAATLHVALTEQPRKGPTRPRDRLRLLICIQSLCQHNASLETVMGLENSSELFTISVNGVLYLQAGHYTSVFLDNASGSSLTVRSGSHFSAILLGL
Experimental: (a) Investigation of the ability of BMPs to disrupt binding of cryptate-labelled anti-ERFE antibody to biotinylated murine ERFE: FRET assay was used to determine the ability of BMPs to disrupt binding between ERFE and a neutralising anti-ERFE antibody (Ab 15.1). The assay setup comprised streptavidin XL665 (cisbio assays) at a constant concentration of 1:1000 to be 50 ng per well, biotinylated monoFC-muErfe (9 μM) i.e. a monomeric FC murine ERFE fusion, cryptate labelled anti-ERFE antibody (Ab 15.1) at 15 nM. Each reaction well contained a total volume of 20 μl comprising: 5 μl streptavidin XL665, 5 μl Biotinylated monoFC-muErfe, 5 μl cryptate labelled anti-ERFE antibody 15.1, 5 μl competing antigen as a titration from 250 nM to 0.39 nM, all antigens at each concentration were assayed in duplicate. Reactions were left for 3 hours at room temperature and then […] at 665 nm and […] was read on the Envision. […] The assay was also conducted using a non-neutralising anti-ERFE antibody as a control.

[2] = tested on: HAMP-nanoluciferase fusion in HepG2 hepatoma cells; assay: hepcidin transcriptional fusion reporter assay (nano-luc / nano-luciferase assay); format: cell-based; conditions: for hepcidin expression (hepcidin-nanoluciferase fusion expression): NanoLuc cells, serially diluted BMP, 24 h
Experimental: The was measured in-vitro using as follows: A hepcidin transcriptional fusion reporter assay (nano-luc or nano-luciferase assay) was developed to assess the effect of BMPs on hepcidin production in-vitro. A nanoluciferase reporter was inserted at the end of the coding sequence of the endogenous HAMP gene, in HepG2 hepatoma cells, creating a HAMP-nanoluciferase fusion. CRISPR-Cas9 was used to edit the cells with this knock-in reporter construct. A bovine Growth Hormone poly A was included after the nanoLuc to ensure proper mRNA processing. A Puromycin-TK expression cassette was also included 3′ of the nanoluc reporter to enrich for properly targeted clones. […] Approximately 20,000 cells (cells split with trypsin/EDTA) were suspended in 200 uL of complete media (DMEM+10% serum+Na pyruvate) and were distributed into each well of 96-well plates and incubated for 24 hours at 37 C. Media was then aspirated and the cells treated in 100 uL complete media for 24 h at 37 C in the presence of the selected BMP which was serial diluted (in duplicates), controls of fresh media alone were used for a baseline signal (in duplicate). Following the incubation 90 uL of supernatant was transferred to a white wall 96 well plate and equilibrated at RT, 90 uL of RT NanoLuc reagent was added/well (for 1 plate, 10 mL diluting reagent+200 uL NanoLuc substrate—from Nano-Glo Luciferase Assay System, Promega, ref cat #N1150) and mixed 2-3 min at room temperature. Plates were read on Envision with Lum700 program following the manufacturer's instructions.

[3] = tested on: SMAD1/5/8 phosphorylation in Huh7 cells; assay: Western blot of SMAD1/5/8 phosphorylation in Huh7 cells; format: cell-based; conditions: Huh7, BMP6 stimulation, 30 min
Experimental: (d) ERFE effects on BMP/SMAD signalling measured by SMAD 1/5/8 phosphorylation: To confirm the suppression of BMP/SMAD signalling, we analysed phosphorylation of SMAD1/5/8, required to transduce the signal leading to HAMP upregulation. Analysis was carried out by Western blot according to the following methodology: Cells were lysed at 4° C. using RIPA buffer (Thermo Scientific) containing protease/phosphatase inhibitor (Cell Signalling). Lysates were denatured at 95° C. and separated on a 10% SDS polyacrylamide gel (Bio-Rad), following the manufacturer's instruction. Protein sizes were estimated by using the Novex Sharp Pre-Stained Protein Ladder (life technologies). Protein was transferred to a nitrocellulose membrane, then blocked with milk/TBS for 1 h. Antibodies used were anti-P-SMAD 1/5 (S463s/465)/9(S465/467) (Cell signalling 13820S 1:500), anti-Smad1 (Cell Signalling 6944S 1:500), anti-β-actin-peroxidase (Sigma A3854 1:10 000), and Anti-rabbit IgG HRP conjugated (RnD systems HAP008 1:5000). […] In this case Huh7 cells were treated with mouse ERFE (10 μg/ml) or BMP6 and LDN, a small molecule inhibitor of BMPs, (100 nM), alone or in combination, for 30 min and pSMAD/SMAD ratios values were calculated by densitometry. Erythroferrone caused a decrease in SMAD phosphorylation relative to non-treated cells (FIG. 3D).

BMP6 = biological target: T1, BMP6 (UniProt P22004 382-513); assay: SPR (Biacore)
T1 chain: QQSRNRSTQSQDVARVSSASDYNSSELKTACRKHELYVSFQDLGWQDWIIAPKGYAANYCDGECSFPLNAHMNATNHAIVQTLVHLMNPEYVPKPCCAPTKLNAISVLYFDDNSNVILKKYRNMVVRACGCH

BMP2 = biological target: T2, BMP2 (UniProt P12643 283-396); assay: SPR (Biacore)
T2 chain: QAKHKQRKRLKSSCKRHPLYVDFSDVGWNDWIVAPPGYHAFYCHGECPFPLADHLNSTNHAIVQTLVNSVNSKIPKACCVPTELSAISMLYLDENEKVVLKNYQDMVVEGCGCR

BMP4 = biological target: T3, BMP4 (UniProt P12644 293-408); assay: SPR (Biacore)
T3 chain: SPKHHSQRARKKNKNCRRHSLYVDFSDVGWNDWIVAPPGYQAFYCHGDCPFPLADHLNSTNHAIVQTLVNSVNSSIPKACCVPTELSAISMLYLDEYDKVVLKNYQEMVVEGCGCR

Huh7 cells = assay: Gene expression microarray of Huh7 cells treated with ERFE; format: cell-based; conditions: Huh7, ERFE 10 μg/ml, 24 h
Experimental: (b) Gene expression microarray: Microarray analysis of Huh7 cells treated with mouse or human erythroferrone was carried out to test the activity of erythroferrone on the BMP/SMAD signalling pathway. Generally cell treatments were carried out according to the following protocol: Huh7 and HepG2 were cultured in Dulbecco's Modified Eagle's Medium—High Glucose (Sigma), supplemented with 10% Fetal Bovine Serum (Sigma), 1% Penicillin-Streptomycin (Sigma) and 1% L-Glutamine (Sigma), unless otherwise indicated. Cells were plated 24 h before treatments in 24-well (gene expression analysis) or 12-well (protein analysis) cell culture plates. At the time of treatment, cells were washed with PBS and fresh media was added.
For the purposes of gene expression microarray analysis RNA was isolated from the Huh7 cells using RNeasy Plus kit (Qiagen), this was followed by RNA quantification and quality assessment using a 2100 Bioanalyzer (Agilent). RNA was converted into biotin labelled cRNA for hybridization and gene expression analysed using the Human HT12v4.0 Expression Beadchip (Illumina) and the Illuminas's iScan Scanner. Raw data was normalised using the lumi package (Bioconductor) and compared using LIMMA (Bioconductor). Statistical significance was set at p<0.05.

B3: monoFC-huErfe: monomeric Fc fusion of human ERFE; FIG. 3L legend names the A4 mutant (protein)
chain: AAGLGSPEPGAPSRSRARREPPPGNELPRGPGESRAGPAARPPEPTAERAHSVDPRDAWMLFVRQSDKGVNGKKRSRGKAKKLKFGLPGPPGPPGPQGPPGPIIPPEALLKEFQLLLKGAVRQRERAEPEPCTCGPAGPVAASLAPVSATAGEDDDDVVGDVLALLAAPLAPGPRAPRVEAAFLCRLRRDALVERRALHELGVYYLPDAEGAFRRGPGLNLTSGQYRAPVAGFYALAATLHVALGEPPRRGPPRPRDHLRLLICIQSRCQRNASLEAIMGLESSSELFTISVNGVLYLQMGQWTSVFLDNASGCSLTVRSGSHFSAVLLGV
modifications: left off: a dimerising Fc or GST
- suppression of hepcidin production (NanoLuc) ([2]; two fold dilutions from 600 nM, 24 hours): dose dependent

B5: human ERFE: recombinant human erythroferrone, SEQ ID NO: 1 (protein, listed as Homo sapiens)
chain: MAPARRPAGARLLLVYAGLLAAAAAGLGSPEPGAPSRSRARREPPPGNELPRGPGESRAGPAARPPEPTAERAHSVDPRDAWMLFVRQSDKGVNGKKRSRGKAKKLKFGLPGPPGPPGPQGPPGPIIPPEALLKEFQLLLKGAVRQRERAEPEPCTCGPAGPVAASLAPVSATAGEDDDDVVGDVLALLAAPLAPGPRAPRVEAAFLCRLRRDALVERRALHELGVYYLPDAEGAFRRGPGLNLTSGQYRAPVAGFYALAATLHVALGEPPRRGPPRPRDHLRLLICIQSRCQRNASLEAIMGLESSSELFTISVNGVLYLQMGQWTSVFLDNASGCSLTVRSGSHFSAVLLGV
- target genes of the JAK/STAT3 pathway (Huh7 cells): No changes
- number of suppressed genes (Huh7 cells; 5 are BMP/SMAD targets ID1, ID2, ID3, SMAD6, HAMP): 12

B6: BMP9: bone morphogenetic protein 9 (R&D systems) (protein)
chain: SAGAGSHCQKTSLRVNFEDIGWDSWIIAPKEYEAYECKGGCFFPLADDVTPTKHAIVQTLVHLKFPTKVGKACCVPTKLSPISVLYKDDMGVPTLKYHYEGMSVAECGCR
- hepcidin expression (hepcidin-nanoluciferase fusion expression) [2]: dose-dependent increase

Now from value to molecule, other results behind:

- competition with cryptate labelled anti-ERFE antibody for binding to biotinylated monoFC-muErfe [1]: did not compete effectively
Molecule: BMP4: bone morphogenetic protein 4 (R&D systems)

- competition with cryptate labelled anti-ERFE antibody for binding to biotinylated monoFC-muErfe [1]: measurable competition
B1: BMP6: bone morphogenetic protein 6 (R&D systems) (protein)
chain: T1 chain
- hepcidin expression (hepcidin-nanoluciferase fusion expression) [2]: dose-dependent increase
- SMAD phosphorylation [3]: increase

- Kd (BMP6): 1.17 nM
- Kd (BMP2): 16.1 nM
- Kd (BMP4): 41.1 nM
B2: ERFE A4-biotin (ligand)
chain: B3 chain with R16A, R18A, R19A
modifications: biotin (site not stated)

- competition with cryptate labelled anti-ERFE antibody for binding to biotinylated monoFC-muErfe [1]: measurable competition
B4: BMP7: bone morphogenetic protein 7 (R&D systems) (protein)
chain: STGSKQRSQNRSKTPKNQEALRMANVAENSSSDQRQACKKHELYVSFRDLGWQDWIIAPEGYAAYYCEGECAFPLNSYMNATNHAIVQTLVHFINPETVPKPCCAPTQLNAISVLYFDDSSNVILKKYRNMVVRACGCH

- competition with cryptate labelled anti-ERFE antibody for binding to biotinylated monoFC-muErfe [1]: measurable competition
B7: BMP5: bone morphogenetic protein 5 (R&D systems) (protein)
chain: AANKRKNQNRNKSSSHQDSSRMSSVGDYNTSEQKQACKKHELYVSFRDLGWQDWIIAPEGYAAFYCDGECSFPLNAHMNATNHAIVQTLVHLMFPDHVPKPCCAPTKLNAISVLYFDDSSNVILKKYRNMVVRSCGCH
